Laboratory results: patent US8487074B2, “Modulation of lipid rafts” (Lantmannen AS-Faktor AB, priority 2006, dated 2013)
No end group written: not given here.

B1: AF: antisecretory factor, a 41 kDa protein comprising 382 amino acids; the term also covers homologues, derivatives and fragments (protein, listed as Homo sapiens)
chain: MVLESTMVCVDNSEYMRNGDFLPTRLQAQQDAVNIVCHSKTRSNPENNVGLITLANDCEVLTTLTPDTGRILSKLHTVQPKGKITFCTGIRVAHLALKHRQGKNHKMRIIAFVGSPVEDNEKDLVKLAKRLKKEKVNVDIINFGEEEVNTEKLTAFVNTLNGKDGTGSHLVTVPPGPSLADALISSPILAGEGGAMLGLGASDFEFGVDPSADPELALALRVSMEEQRHAGGGARRAARASAAEAGIATTGTEDSDDALLKMTISQQEFGRTGLPDLSSMTEEEQIAYAMQMSLQGAEFGQAESADIDASSAMDTSEPAKEEDDYDVMQDPEFLQSVLENLPGVDPNNEAIRNAMGSLPPRPPRTARRTRRRKTRSETGGKG

Assays:
[1] = tested on: injured skin and cartilage; set-up: species or system rats; conditions: rat, in vivo
Experimental: In an experiment it was investigated whether the administration of AF-16 affected the healing process of injured skin and cartilage, using freeze-thaw injury to a rat ear as a model system. […] In addition 1 mg AF-16 was injected intramuscularly just after the implantation of the pump. Thereafter, a freeze-thaw injury was applied by compressing the ear in a standardized manner with the aid of a Pean's forceps, chilled in liquid nitrogen. For comparison, additional rats were treated in the same way in parallel were treated with the vehicle, PBS with 15% ethanol, only and no peptide. Additionally, normal rats, which had not been exposed to any freeze-thaw injury, were used for reference as were non-injured rats having pumps with AF-16 implanted. […] On either side bordering the injured elastic cartilage in the ear there was a formation of new hyaline cartilage. […] The amount of collagen and density of inflammatory cells were reduced in the AF-16 treated animals as compared to those having had the vehicle.

injured skin and periost = assay: Healing of calvarial skin wound and periost in rabbits; format: in vivo, New Zeeland albino rabbits; conditions: vs vehicle
Experimental: Adult rabbits were investigated with regard to whether the administration of AF-16 affected the healing process of injured skin and periost. […] The rabbits had either AF-16 or the vehicle injected intravenously in a marginal ear vein. The dose of AF-16 was up to 5 mg per kg body weight, twice daily. The calvarial skin wound and the injection sites in the ear were investigated macroscopically after a week. Then, specimens were dissected from both areas and prepared by fixation, embedding, sectioning and staining for light microscopic examination.

aquaporins = assay: Effects of AF treatment on aquaporins after trauma, infections and other pathological conditions; format: in vivo; conditions: topical or systemic administration
Source text: Aquaporins are a family of proteins, integrated in membranes, and expressed in all living cells and organisms. The major function of aquaporins is to control the water flow into and out of cells, i.e. between the cytoplasm of cells and the extracellular environment. Each type of cells, tissues and organs have their specific set of aquaporins with characteristic distribution patterns. Functional aquaporins are preferentially clustered in lipid rafts and caveolae, while subunits and dissociated aquaporin complexes may be demonstrable outside these membrane constituents. […] Further, at brain and spinal cord infections, e.g. encephalitis, the patterns of distribution and intensity of these two aquaporins became altered, as disclosed be immunohistochemistry and immunochemistry. The interaction between e.g. neurons and supporting glial cells and vascular structures seems to be intricate and complex, but important.
Experiments are performed mapping in more detail regarding effects of trauma, infections and other pathological conditions. […] Effects are characterized quantitatively and qualitatively and the importance of effects on the structure and functions of the different types of aquaporins in a body. […]

pulmonary hypertension = assay: Crotaline (monocrotaline) induced pulmonary hypertension in rats; format: in vivo, Sprague-Dawley rats; conditions: crotaline 60 mg/kg ip; minipump infusion; assessed 18 days later; vs untreated normal controls
Experimental: Adolescent and adult rats, with a body weight of 150-300 g and of either sex, were treated experimentally to induce pulmonary hypertension and reactive alterations in the lungs. Pulmonary hypertension (PH) is defined as having a pressure in excess of the normal pulmonary artery pressure, […], usually in the range of 30-40 mm Hg. It is a progressive disease with high morbidity and mortality in humans as well as in animals. Experimental models enable investigation of the initiating mechanisms. A single treatment of rats with monocrotaline is an established approach for the induction of PH (Cf. Mathew et al., 2004). […]
The rats were anaesthetized 18 days later, and their body weights determined. […] The pressure in the right heart ventricle was assessed with the aid of a fiber optic miniature transducer system (Samba System 3200 & Samba Preclin 420 sensor; Samba Sensors AB, V. Frolunda, Sweden), inserted through the right jugular vein. […] In contrast, rats treated with crotaline (single ip injection; 60 mg/kg body weight; crotaline dissolved in PBS) and the vehicle delivered by a Alzet pump had for 18 days an pulmonary artery pressure in excess of 30 mm Hg and a hypertrophy of the right ventricle, as assessed by comparing its wet weight to that of the left ventricle and with the weight of corresponding structures of non-treated, normal rats. […]

Row | Molecule | structures in the ear of non-injured rats [1] | frequency of caveolae (injured skin and periost) | prevalence, distribution and activity of aquaporins and ion channel complexes (aquaporins) | general appearance and body weight (pulmonary hypertension)
1 | VCHSKTRSNPENNVGL [AF-16, VCHSKTRSNPENNVGL] | did not alter the structures in the ear |  |  | 
2 | B1 |  | more normal | great impact in monitoring and even normalizing | appeared healthy and had almost the same weight and appearance as the controls
